Measured values from patent US20090285813A1.

Molecular target: human CD3 (human) (UniProt P07766)
Test: cell-based or functional assay

human CD3 (human), sequence (P07766 23-207): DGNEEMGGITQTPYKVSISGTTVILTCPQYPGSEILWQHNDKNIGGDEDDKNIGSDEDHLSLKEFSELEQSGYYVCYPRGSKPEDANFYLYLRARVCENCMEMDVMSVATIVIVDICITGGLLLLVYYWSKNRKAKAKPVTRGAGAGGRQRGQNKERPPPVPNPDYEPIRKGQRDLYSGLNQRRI

## Irrelevant human IgG1 (EMD Biosciences Cat. 400120) (antibody)
  Apo-One Apoptosis Assay, 12.5 ng/ml: 250
  Apo-One Apoptosis Assay, 25 ng/ml: 259
  Apo-One Apoptosis Assay, 50 ng/ml: 234
